Reference: US20250171562A1 (ALK ABELL, published 2025)

B1: F5A1(G4S)4 (bispecific antibody)
chain: DVQLQESGGGLVQPGGSLRLSCAASGSIFSIDIMGWYRQAPGKQRELVATMPEGNYINYADSVKGRLTLSRDKGKNTVYLQLNSLKPEDTAVYYCYGFGVREGRGNVYWGQGTQVTVSGGGGSGGGGSGGGGSGGGGSEVQLLESGGGLVQPGGSLRLSCAASGFTFGNYDMAWVRQAPGKRPEWVSSIDTGGDITHYADSVKGRFTISRDNAKNTLYLQMNSLRPEDTAVYWCATDEEYALGPNEFDYYGQGTLVTVS
B2: A1B1(G4S)1 (bispecific antibody)
chain: EVQLLESGGGLVQPGGSLRLSCAASGFTFGNYDMAWVRQAPGKRPEWVSSIDTGGDITHYADSVKGRFTISRDNAKNTLYLQMNSLRPEDTAVYWCATDEEYALGPNEFDYYGQGTLVTVSSGGGGSQVQLQESGGGLVQTGGSLRLSCAVHGRTFSNTGMGWFRQAPGNERQFVAIISPSGTSTYYADSVKGRFTISRDPAKNTVYLQMNSLKMDDTAVYYCAASYGSNWSTLRHQRRNEYDAWGQGTQVAVS
B3: B1A1(G4S)2 (bispecific antibody)
chain: QVQLQESGGGLVQTGGSLRLSCAVHGRTFSNTGMGWFRQAPGNERQFVAIISPSGTSTYYADSVKGRFTISRDPAKNTVYLQMNSLKMDDTAVYYCAASYGSNWSTLRHQRRNEYDAWGQGTQVAVSGGGGSGGGGSEVQLLESGGGLVQPGGSLRLSCAASGFTFGNYDMAWVRQAPGKRPEWVSSIDTGGDITHYADSVKGRFTISRDNAKNTLYLQMNSLRPEDTAVYWCATDEEYALGPNEFDYYGQGTLVTVSS
B4: sdAb A2 (VHH)
VHH: EVQLLESGGGLVQPGGSLRLSCAASGFRFGNYDMAWVRQAPGKRYEWVSSIDTGGDITHYADSVKGRFTISRDNAKNTLYLQMNSLRPEDTAEYWCATDEEYALGPNEFDYYGQGTLVTVS
notes: also called A1 triple mutant (T28R, P45Y, V93E)
B5: NIgG4B1A1(G4S)1 (Fc fusion)
chain 1: QVQLQESGGGLVQTGGSLRLSCAVHGRTFSNTGMGWFRQAPGNERQFVAIISPSGTSTYYADSVKGRFTISRDPAKNTVYLQMNSLKMDDTAVYYCAASYGSNWSTLRHQRRNEYDAWGQGTQVAVSGGGGSGPPCPPCPAPEFLGGPSVFLFPPKPKDTLMISRTPEVTCVVVDVSQEDPEVQFNWYVDGVEVHNAKTKPREEQFNSTYRVVSVLTVLHQDWLNGKEYKCKVSNKGLPSSIEKTISKAKGQPREPQVYTLPPCQEEMTKNQVSLWCLVKGFYPSDIAVEWESNGQPENNYKTTPPVLDSDGSFFLYSRLTVDKSRWQEGNVFSCSVMHEALHNHYTQKSLSLSLGK
chain 2: EVQLLESGGGLVQPGGSLRLSCAASGFTFGNYDMAWVRQAPGKRPEWVSSIDTGGDITHYADSVKGRFTISRDNAKNTLYLQMNSLRPEDTAVYWCATDEEYALGPNEFDYYGQGTLVTVSSGGGGSGPPCPPCPAPEFLGGPSVFLFPPKPKDTLMISRTPEVTCVVVDVSQEDPEVQFNWYVDGVEVHNAKTKPREEQFNSTYRVVSVLTVLHQDWLNGKEYKCKVSNKGLPSSIEKTISKAKGQPREPQVCTLPPSQEEMTKNQVSLSCAVKGFYPSDIAVEWESNGQPENNYKTTPPVLDSDGSFFLVSRLTVDKSRWQEGNVFSCSVMHEALHNHYTQKSLSLSLGK
B6: NIgG4B1A1(G4S)2 (Fc fusion)
chain 1: QVQLQESGGGLVQTGGSLRLSCAVHGRTFSNTGMGWFRQAPGNERQFVAIISPSGTSTYYADSVKGRFTISRDPAKNTVYLQMNSLKMDDTAVYYCAASYGSNWSTLRHQRRNEYDAWGQGTQVAVSGGGGSGGGGSGPPCPPCPAPEFLGGPSVFLFPPKPKDTLMISRTPEVTCVVVDVSQEDPEVQFNWYVDGVEVHNAKTKPREEQFNSTYRVVSVLTVLHQDWLNGKEYKCKVSNKGLPSSIEKTISKAKGQPREPQVYTLPPCQEEMTKNQVSLWCLVKGFYPSDIAVEWESNGQPENNYKTTPPVLDSDGSFFLYSRLTVDKSRWQEGNVFSCSVMHEALHNHYTQKSLSLSLGK
chain 2: EVQLLESGGGLVQPGGSLRLSCAASGFTFGNYDMAWVRQAPGKRPEWVSSIDTGGDITHYADSVKGRFTISRDNAKNTLYLQMNSLRPEDTAVYWCATDEEYALGPNEFDYYGQGTLVTVSSGGGGSGGGGSGPPCPPCPAPEFLGGPSVFLFPPKPKDTLMISRTPEVTCVVVDVSQEDPEVQFNWYVDGVEVHNAKTKPREEQFNSTYRVVSVLTVLHQDWLNGKEYKCKVSNKGLPSSIEKTISKAKGQPREPQVCTLPPSQEEMTKNQVSLSCAVKGFYPSDIAVEWESNGQPENNYKTTPPVLDSDGSFFLVSRLTVDKSRWQEGNVFSCSVMHEALHNHYTQKSLSLSLGK
B7: NIgG4B1A1(G4S)3 (Fc fusion)
chain 1: QVQLQESGGGLVQTGGSLRLSCAVHGRTFSNTGMGWFRQAPGNERQFVAIISPSGTSTYYADSVKGRFTISRDPAKNTVYLQMNSLKMDDTAVYYCAASYGSNWSTLRHQRRNEYDAWGQGTQVAVSGGGGSGGGGSGGGGSGPPCPPCPAPEFLGGPSVFLFPPKPKDTLMISRTPEVTCVVVDVSQEDPEVQFNWYVDGVEVHNAKTKPREEQFNSTYRVVSVLTVLHQDWLNGKEYKCKVSNKGLPSSIEKTISKAKGQPREPQVYTLPPCQEEMTKNQVSLWCLVKGFYPSDIAVEWESNGQPENNYKTTPPVLDSDGSFFLYSRLTVDKSRWQEGNVFSCSVMHEALHNHYTQKSLSLSLGK
chain 2: EVQLLESGGGLVQPGGSLRLSCAASGFTFGNYDMAWVRQAPGKRPEWVSSIDTGGDITHYADSVKGRFTISRDNAKNTLYLQMNSLRPEDTAVYWCATDEEYALGPNEFDYYGQGTLVTVSSGGGGSGGGGSGGGGSGPPCPPCPAPEFLGGPSVFLFPPKPKDTLMISRTPEVTCVVVDVSQEDPEVQFNWYVDGVEVHNAKTKPREEQFNSTYRVVSVLTVLHQDWLNGKEYKCKVSNKGLPSSIEKTISKAKGQPREPQVCTLPPSQEEMTKNQVSLSCAVKGFYPSDIAVEWESNGQPENNYKTTPPVLDSDGSFFLVSRLTVDKSRWQEGNVFSCSVMHEALHNHYTQKSLSLSLGK
B8: sdAb F6 (VHH)
VHH: DVQLQESGGGLVQAGGSLRLSCAASGLTFGSYDMGWYRQAPGKQRELVGRIRNDGITYYADSVKGRFTMSRDNAKNTVYLQMNSLKPEDTAVYYCAADGTGLGHYDYWGQGTQVTVS
B9: NIgG4B1A1(RS) (Fc fusion)
chain 1: QVQLQESGGGLVQTGGSLRLSCAVHGRTFSNTGMGWFRQAPGNERQFVAIISPSGTSTYYADSVKGRFTISRDPAKNTVYLQMNSLKMDDTAVYYCAASYGSNWSTLRHQRRNEYDAWGQGTQVAVSRSGPPCPPCPAPEFLGGPSVFLFPPKPKDTLMISRTPEVTCVVVDVSQEDPEVQFNWYVDGVEVHNAKTKPREEQFNSTYRVVSVLTVLHQDWLNGKEYKCKVSNKGLPSSIEKTISKAKGQPREPQVYTLPPCQEEMTKNQVSLWCLVKGFYPSDIAVEWESNGQPENNYKTTPPVLDSDGSFFLYSRLTVDKSRWQEGNVFSCSVMHEALHNHYTQKSLSLSLGK
chain 2: EVQLLESGGGLVQPGGSLRLSCAASGFTFGNYDMAWVRQAPGKRPEWVSSIDTGGDITHYADSVKGRFTISRDNAKNTLYLQMNSLRPEDTAVYWCATDEEYALGPNEFDYYGQGTLVTVSSRSGPPCPPCPAPEFLGGPSVFLFPPKPKDTLMISRTPEVTCVVVDVSQEDPEVQFNWYVDGVEVHNAKTKPREEQFNSTYRVVSVLTVLHQDWLNGKEYKCKVSNKGLPSSIEKTISKAKGQPREPQVCTLPPSQEEMTKNQVSLSCAVKGFYPSDIAVEWESNGQPENNYKTTPPVLDSDGSFFLVSRLTVDKSRWQEGNVFSCSVMHEALHNHYTQKSLSLSLGK
notes: same for the Fc fusions below
B10: B1A1(G4S)1 (bispecific antibody)
chain: QVQLQESGGGLVQTGGSLRLSCAVHGRTFSNTGMGWFRQAPGNERQFVAIISPSGTSTYYADSVKGRFTISRDPAKNTVYLQMNSLKMDDTAVYYCAASYGSNWSTLRHQRRNEYDAWGQGTQVAVSGGGGSEVQLLESGGGLVQPGGSLRLSCAASGFTFGNYDMAWVRQAPGKRPEWVSSIDTGGDITHYADSVKGRFTISRDNAKNTLYLQMNSLRPEDTAVYWCATDEEYALGPNEFDYYGQGTLVTVSS
B11: B1A1(G4S)3 (bispecific antibody)
chain: QVQLQESGGGLVQTGGSLRLSCAVHGRTFSNTGMGWFRQAPGNERQFVAIISPSGTSTYYADSVKGRFTISRDPAKNTVYLQMNSLKMDDTAVYYCAASYGSNWSTLRHQRRNEYDAWGQGTQVAVSGGGGSGGGGSGGGGSEVQLLESGGGLVQPGGSLRLSCAASGFTFGNYDMAWVRQAPGKRPEWVSSIDTGGDITHYADSVKGRFTISRDNAKNTLYLQMNSLRPEDTAVYWCATDEEYALGPNEFDYYGQGTLVTVSS
B12: A1B1(G4S)3 (bispecific antibody)
chain: EVQLLESGGGLVQPGGSLRLSCAASGFTFGNYDMAWVRQAPGKRPEWVSSIDTGGDITHYADSVKGRFTISRDNAKNTLYLQMNSLRPEDTAVYWCATDEEYALGPNEFDYYGQGTLVTVSSGGGGSGGGGSGGGGSQVQLQESGGGLVQTGGSLRLSCAVHGRTFSNTGMGWFRQAPGNERQFVAIISPSGTSTYYADSVKGRFTISRDPAKNTVYLQMNSLKMDDTAVYYCAASYGSNWSTLRHQRRNEYDAWGQGTQVAVS

molecular target: T1, recombinant human IgE (human, UniProt P01854-1 1-428); experiment: IgE-FcεRIα displacement ELISA
T1 construct: made in-house (ALK); preloaded on immobilised FcεRIα in the displacement ELISA
Procedure: The displacement effect was tested using IgE-FcεRIα displacement ELISA assay. Maxisorp® microtiter plates (Thermo Scientific Nunc, Roskilde, Denmark) were coated with 100 μl streptavidin, 5 μg/ml (Thermo Scientific, Waltham, MA) for 18 h at 4° C. followed by wash with 300 μl washing buffer (PBS containing 0.05% Tween 20) using an AquaMax® 2000 plate washer (Molecular Devices, San Jose, CA). Remaining binding sites were blocked with 250 μl blocking buffer (PBS containing 2% BSA) for 2 h and washed with 300 μl washing buffer. Subsequently, the bound streptavidin was loaded with 100 μl (0.1 μg/ml) recombinant human FcεRIα (site specific biotinylated via avi-tag, made in-house, ALK, Hørsholm, Denmark) for 1 h and plates washed twice with 300 μl washing buffer. The bound receptor was then loaded with 100 μl recombinant human IgE (made in-house, ALK, Hørsholm, Denmark), 13 ng/ml (pre-titrated to reach an OD₄₅₀ signal in the range of 1.5-2.5 in the absence of displacement components) for 1h followed by three washes of 300 μl washing buffer.
displacement step: 100 μl sdAbs diluted in concentration series (pM-μM range) or blocking buffer only as a non-displacement negative control, were added to the ELISA wells and incubated for 1 h. Any IgE, displaced from the receptor by a sdAb was washed away by three washes of 300 μl washing buffer.
The ability of the various sdAbs to displace IgE from the receptor (FcεRIα) was evaluated by use of the ELISA based IgE-FcεRIα displacement assay. The percent displacement effect was calculated as the relative reduction in signal compared to the control with no sdAb added. The EC₅₀ values and the maximal effects were determined (table 15).

T1 sequence (P01854 other isoform, or with tags, fused parts or gaps): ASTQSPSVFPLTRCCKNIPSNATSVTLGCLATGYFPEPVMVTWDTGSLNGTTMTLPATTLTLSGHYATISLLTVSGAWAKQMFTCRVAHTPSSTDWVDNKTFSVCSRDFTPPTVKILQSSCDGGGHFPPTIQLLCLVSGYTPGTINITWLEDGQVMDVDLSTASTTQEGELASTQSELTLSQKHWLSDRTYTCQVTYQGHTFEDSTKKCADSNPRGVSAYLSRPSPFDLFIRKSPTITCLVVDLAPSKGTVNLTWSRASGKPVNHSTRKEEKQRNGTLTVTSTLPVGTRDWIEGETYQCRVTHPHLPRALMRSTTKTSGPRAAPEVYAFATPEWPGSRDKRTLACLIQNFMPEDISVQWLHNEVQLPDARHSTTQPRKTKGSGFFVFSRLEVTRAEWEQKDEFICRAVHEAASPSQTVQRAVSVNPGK

| EC50 [nM] | Max effect [%] | Binder |
| --- | --- | --- |
| 1100 | 75 | B1 |
| 1 | > 95 | B2 |
| 10 | > 95 | B3 |
| 250 | > 95 | B4 |
| 1.1 | > 95 | B5 |
| 1.4 | > 95 | B6 |
| 0.9 | > 95 | B7 |
| – | < 20 | B8 |
| 1.9 | > 95 | B9 |
| 5.3 | > 95 | B10 |
| 5.3 | > 95 | B11 |
| 0.6 | > 95 | B12 |
